Reference: patent US20250109207A1

Legend:
[1] = molecular target: Human FcγRIIa (H131) (human) (UniProt P12318); experiment: SPR (Biacore); His-tagged FcγR captured, antibody injected; kinetic fit or steady state
[2] = molecular target: Human FcγRIIa (R131) (human) (UniProt P12318); experiment: as above
[3] = molecular target: Human FcγRIIb (human) (UniProt P31994); experiment: as above
[4] = molecular target: Human FcγRIIIa (V176) (human) (UniProt P08637); experiment: SPR (Biacore); His-tagged FcγR captured on anti-penta-His chip, antibody injected
[5] = molecular target: Human FcγRIIa (H131) (human) (UniProt P12318); experiment: as above
[6] = molecular target: Human FcγRIIa (R131) (human) (UniProt P12318); experiment: as above
[7] = molecular target: Human FcγRIIb (human) (UniProt P31994); experiment: as above

Human FcγRIIa (R131) (human), sequence (P12318 36-218 H167R limits assumed): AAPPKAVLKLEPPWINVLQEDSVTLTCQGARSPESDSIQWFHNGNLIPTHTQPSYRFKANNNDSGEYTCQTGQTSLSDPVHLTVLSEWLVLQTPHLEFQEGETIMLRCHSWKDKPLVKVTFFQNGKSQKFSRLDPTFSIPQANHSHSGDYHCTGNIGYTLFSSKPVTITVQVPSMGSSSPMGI
Human FcγRIIb (human), sequence (P31994 46-217 limits assumed): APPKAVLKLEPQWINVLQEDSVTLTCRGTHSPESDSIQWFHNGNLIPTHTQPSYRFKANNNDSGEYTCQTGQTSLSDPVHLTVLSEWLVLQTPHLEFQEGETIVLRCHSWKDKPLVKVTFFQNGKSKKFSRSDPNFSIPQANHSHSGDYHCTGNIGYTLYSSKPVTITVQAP
Human FcγRIIa (H131) (human), sequence (P12318 36-218 limits assumed): as the sequence (P12318 36-218 H167R limits assumed) above, with R132H counted along it
Human FcγRIIIa (V176) (human), sequence (P08637 17-208 F176V limits assumed): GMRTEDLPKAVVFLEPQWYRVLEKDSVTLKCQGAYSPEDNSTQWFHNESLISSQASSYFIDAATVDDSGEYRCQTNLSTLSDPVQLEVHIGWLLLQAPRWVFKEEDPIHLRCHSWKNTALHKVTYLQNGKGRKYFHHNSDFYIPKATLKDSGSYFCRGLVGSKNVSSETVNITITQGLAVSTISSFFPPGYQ

B1: mAb3, IgG4s (antibody, part only; not given: variable domains and light chain, not shown: another chain or arm of the molecule)
Fc: ESKYGPPCPPCPAPPVAGPSVFLFPPKPKDTLMISRTPEVTCVVVDVSQEDPEVQFNWYVDGVEVHNAKTKPREEQFNSTYRVVSVLTVLHQDWLNGKEYKCKVSNKGLPSSIEKTISKAKGQPREPQVYTLPPSQEEMTKNQVSLTCLVKGFYPSDIAVEWESNGQPENNYKTTPPVLDSDGSFFLYSRLTVDKSRWQEGNVFSCSVMHEALHNHYTQKSLSLSLGK
Binder B1 has a Kd [1] of 1610 nM, a Kd [2] of 1320 nM and a Kd [3] of 12300 nM. It also gave a binding signal (RU) [4] of 34 RU, a binding signal (RU) [5] of 419 RU and a binding signal (RU) [6] of 340 RU. It also gave a binding signal (RU) [7] of 226 RU.
